Experimental data taken from publication PMC10268227 (Nature structural & molecular biology, 2023).

Molecular target: T1, human DNA polymerase α catalytic subunit p180 with the N-terminus (residues 1–334) deleted (human, UniProt P09884 335-1462)
T1 sequence (looked up): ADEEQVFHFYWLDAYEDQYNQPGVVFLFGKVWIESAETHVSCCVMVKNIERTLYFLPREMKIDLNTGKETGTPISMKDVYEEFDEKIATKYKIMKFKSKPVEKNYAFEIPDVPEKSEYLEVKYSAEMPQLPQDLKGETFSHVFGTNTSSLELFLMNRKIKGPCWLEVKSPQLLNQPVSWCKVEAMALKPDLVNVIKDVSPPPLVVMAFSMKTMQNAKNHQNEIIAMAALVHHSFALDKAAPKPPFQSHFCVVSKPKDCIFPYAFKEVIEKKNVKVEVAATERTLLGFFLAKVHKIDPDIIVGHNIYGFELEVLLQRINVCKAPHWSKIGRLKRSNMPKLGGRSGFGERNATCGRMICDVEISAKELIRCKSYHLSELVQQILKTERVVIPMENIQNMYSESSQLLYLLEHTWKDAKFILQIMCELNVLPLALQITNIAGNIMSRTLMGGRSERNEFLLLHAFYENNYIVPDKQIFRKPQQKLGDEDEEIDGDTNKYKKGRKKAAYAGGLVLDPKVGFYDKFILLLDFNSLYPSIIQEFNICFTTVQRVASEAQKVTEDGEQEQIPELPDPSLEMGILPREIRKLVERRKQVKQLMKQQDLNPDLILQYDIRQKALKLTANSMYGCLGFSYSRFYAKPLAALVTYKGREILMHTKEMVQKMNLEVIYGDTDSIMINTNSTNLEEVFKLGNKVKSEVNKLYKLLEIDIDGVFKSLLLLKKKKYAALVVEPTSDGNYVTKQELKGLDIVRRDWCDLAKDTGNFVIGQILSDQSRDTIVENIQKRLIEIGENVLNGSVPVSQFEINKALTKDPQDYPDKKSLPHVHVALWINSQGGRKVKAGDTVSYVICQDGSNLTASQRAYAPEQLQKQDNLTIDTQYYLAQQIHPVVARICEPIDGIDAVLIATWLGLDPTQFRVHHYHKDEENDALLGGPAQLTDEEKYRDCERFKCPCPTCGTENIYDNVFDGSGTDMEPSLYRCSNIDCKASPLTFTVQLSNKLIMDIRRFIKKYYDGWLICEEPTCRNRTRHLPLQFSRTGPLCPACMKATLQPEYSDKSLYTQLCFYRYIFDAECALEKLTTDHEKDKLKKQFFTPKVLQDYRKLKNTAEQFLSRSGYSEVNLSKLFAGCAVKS
Test: cryo-EM structure

B1: human DNA polymerase α accessory subunit p70 (natural protein, UniProt Q14181 1-598, looked up)
chain: MSASAQQLAEELQIFGLDCEEALIEKLVELCVQYGQNEEGMVGELIAFCTSTHKVGLTSEILNSFEHEFLSKRLSKARHSTCKDSGHAGARDIVSIQELIEVEEEEEILLNSYTTPSKGSQKRAISTPETPLTKRSVSTRSPHQLLSPSSFSPSATPSQKYNSRSNRGEVVTSFGLAQGVSWSGRGGAGNISLKVLGCPEALTGSYKSMFQKLPDIREVLTCKIEELGSELKEHYKIEAFTPLLAPAQEPVTLLGQIGCDSNGKLNNKSVILEGDREHSSGAQIPVDLSELKEYSLFPGQVVIMEGINTTGRKLVATKLYEGVPLPFYQPTEEDADFEQSMVLVACGPYTTSDSITYDPLLDLIAVINHDRPDVCILFGPFLDAKHEQVENCLLTSPFEDIFKQCLRTIIEGTRSSGSHLVFVPSLRDVHHEPVYPQPPFSYSDLSREDKKQVQFVSEPCSLSINGVIFGLTSTDLLFHLGAEEISSSSGTSDRFSRILKHILTQRSYYPLYPPQEDMAIDYESFYVYAQLPVTPDVLIIPSELRYFVKDVLGCVCVNPGRLTKGQVGGTFARLYLRRPAADGAERQSPCIAVQVVRI
B1: binds.
